We go through 2 molecules from patent publication US20150299277A1 (published 2015).

Assay [1] addresses T1, recombinant human histone H4 (UniProt P62805 2-103). Briefly: SPR; Ca2+.
The target of assay [2] is T2, recombinant human histone H3 (UniProt P68431 2-136). Briefly: SPR; Ca2+. (SPR reads the build-up and loss of mass on a sensor chip optically.)
The target of assay [3] is recombinant human histone H2B (human). Briefly: SPR; Ca2+.
Assay [4] concerns the target T2, recombinant human histone H3. In words: SPR; EDTA/EGTA.
In assay [5] the target is T1, recombinant human histone H4. In words: SPR; EDTA/EGTA.

B1: Escherichia coli-expressed N-terminal domain human PTX3 wherein the 47th, 49th, 103rd cysteine residues were replaced with serine residue (other)
chain: ENLYFQGENSDDYDLMYVNLDNEIDNGLHPTEDPTPSDSGQEHSEWDKLFIMLENSQMRERMLLQATDDVLRGELQRLREELGRLAESLARPSAPGAPAEARLTSALDELLQATRDAGRRLARMEGAEAQRPEEAGRALAAVLEELRQTRADLHAVQGWAARSWLPAG
One may read the Kd as the constant that tells how readily two partners part at equilibrium. As for B1, the Kd came to 1.21 nM in assay [1], 0.354 nM in assay [2], 10.9 nM in assay [3] and 1.95 nM in assay [4].

B2: Myc- and His-tagged C-terminal domain human PTX3 (animal cell expressed) (other)
chain: CETAILFPMRSKKIFGSVHPVRPMRLESFSACIWVKATDVLNKTILFSYGTKRNPYEIQLYLSYQSIVFVVGGEENKLVAEAMVSLGRWTHLCGTWNSEEGLTSLWVNGELAATTVEMATGHIVPEGGILQIGQEKNGCCVGGGFDETLAFSGRLTGFNIWDSVLSNEEIRETGGAESCHIRGNIVGWGVTEIQPHGGAQYVS
Turning to B2, the equilibrium dissociation constant (Kd) was 1.04 nM in assay [1], 5.64 nM in assay [2], 322 nM in assay [5] and 4.77 nM in assay [4].
